What was measured:
[1] = target: Swedish mutant P13-P5′ peptide with P1′ aspartic acid replaced with a leucine (D→L), P05067
[2] = target: Swedish mutant P13-P5′ peptide with P1′ aspartic acid replaced with a valine (D→V), P05067
Chain of Swedish mutant P13-P5′ peptide with P1′ aspartic acid replaced with a valine (D→V), P05067 (P05067 whole entry, looked up, change not shown, tested part not stated): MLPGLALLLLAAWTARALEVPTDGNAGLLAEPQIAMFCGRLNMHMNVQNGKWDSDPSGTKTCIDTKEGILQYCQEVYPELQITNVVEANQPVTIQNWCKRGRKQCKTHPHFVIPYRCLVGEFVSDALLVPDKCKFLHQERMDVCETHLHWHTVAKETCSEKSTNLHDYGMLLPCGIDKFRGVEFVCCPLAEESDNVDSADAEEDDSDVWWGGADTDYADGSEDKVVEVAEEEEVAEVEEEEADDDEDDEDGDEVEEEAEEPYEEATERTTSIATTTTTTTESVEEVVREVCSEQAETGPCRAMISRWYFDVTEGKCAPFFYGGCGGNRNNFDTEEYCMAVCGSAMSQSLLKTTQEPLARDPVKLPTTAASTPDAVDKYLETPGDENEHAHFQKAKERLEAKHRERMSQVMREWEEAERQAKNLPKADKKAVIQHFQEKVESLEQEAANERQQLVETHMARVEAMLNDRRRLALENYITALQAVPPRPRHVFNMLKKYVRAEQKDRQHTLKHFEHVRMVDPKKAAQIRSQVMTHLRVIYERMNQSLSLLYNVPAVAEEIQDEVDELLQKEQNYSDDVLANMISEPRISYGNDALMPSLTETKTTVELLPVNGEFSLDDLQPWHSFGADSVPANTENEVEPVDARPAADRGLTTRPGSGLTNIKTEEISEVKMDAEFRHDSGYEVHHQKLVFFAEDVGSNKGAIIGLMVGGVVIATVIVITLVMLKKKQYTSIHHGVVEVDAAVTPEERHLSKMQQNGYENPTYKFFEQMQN

Chain of Swedish mutant P13-P5′ peptide with P1′ aspartic acid replaced with a leucine (D→L), P05067 (P05067 whole entry, looked up, change not shown, tested part not stated): as above

B1: naturally occurring β-secretase purified from human brain (protein)
chain: ETDEEPEEPGRRGSFVEMVDNLRGKSGQGYYVEMTVGSPPQTLNILVDTGSSNFAVGAAPHPFLHRYYQRQLSSTYRDLRKGVYVPYTQGKWEGELGTDLVSIPHGPNVTVRANIAAITESDKFFINGSNWEGILGLAYAEIARPDDSLEPFFDSLVKQTHVPNLFSLQLCGAGFPLNQSEVLASVGGSMIIGGIDHSLYTGSLWYTPIRREWYYEVIIVRVEINGQDLKMDCKEYNYDKSIVDSGTTNLRLPKKVFEAAVKSIKAASSTEKFPDGFWLGEQLVCWQAGTTPWNIFPVISLYLMGEVTNQSFRITILPQQYLRPVEDVATSQDDCYKFAISQSSTGTVMGAVIMEGFYVVFDRARKRIGFAVSACHVHDEFRTAAVEGPFVTLDMEDCGYNIPQTDESTLMTIAYVMAAICALFMLPLCLMVCQWRCLRCLRQQHDDFADDISLLK
- substrate concentration dependence of hydrolysis by brain β-secretase [1]: show saturation at a lower concentration than the parent Swedish peptide
- substrate concentration dependence of hydrolysis by brain β-secretase [2]: show saturation at a lower concentration than the parent Swedish peptide

— patent US7456007
